From patent US20220089695A1 (NEW YORK UNIVERSITY, published 2022) come the findings set out here.

The chains are these.
B1: Liver and lymph node sinusoidal endothelial cell C-type lectin expressed on cells (receptor)
chain: MDTTRYSKWGGSSEEVPGGPWGRWVHWSRRPLFLALAVLVTTVLWAVILSILLSKASTERAALLDGHDLLRTNASKQTAALGALKEEVGDCHSCCSGTQAQLQTTRAELGEAQAKLMEQESALRELRERVTQGLAEAGRGREDVRTELFRALEAVRLQNNSCEPCPTSWLSFEGSCYFFSVPKTTWAAAQDHCADASAHLVIVGGLDEQGFLTRNTRGRGYWLGLRAVRHLGKVQGYQWVDGVSLSFSHWNQGEPNDAWGRENCVMMLHTGLWNDAPCDSEKDGWICEKRHNC
notes: whole, on cells; also called LSECtin; CLEC4G
B2: Asialoglycoprotein Receptor 1 expressed on cells (receptor)
chain: MTKEYQDLQHLDNEESDHHQLRKGPPPPQPLLQRLCSGPRLLLLSLGLSLLLLVVVCVIGSQNSQLQEELRGLRETFSNFTASTEAQVKGLSTQGGNVGRKMKSLESQLEKQQKDLSEDHSSLLLHVKQFVSDLRSLSCQMAALQGNGSERTCCPVNWVEHERSCYWFSRSGKAWADADNYCRLEDAHLVVVTSWEEQKFVQHHIGPVNTWMGLHDQNGPWKWVDGTDYETGFKNWRPEQPDDWYGHGLGGGEDCAHFTDDGRWNDDVCQRPYRWVCETELDKASQEPPLL
notes: whole, on cells; also called ASGR1
B3: Dendritic cell-specific intercellular adhesion molecule-3-grabbing nonintegrin expressed on cells (receptor)
chain: MSDSKEPRLQQLGLLEEEQLRGLGFRQTRGYKSLAGCLGHGPLVLQLLSFTLLAGLLVQVSKVPSSISQEQSRQDAIYQNLTQLKAAVGELSEKSKLQEIYQELTQLKAAVGELPEKSKLQEIYQELTRLKAAVGELPEKSKLQEIYQELTWLKAAVGELPEKSKMQEIYQELTRLKAAVGELPEKSKQQEIYQELTRLKAAVGELPEKSKQQEIYQELTRLKAAVGELPEKSKQQEIYQELTQLKAAVERLCHPCPWEWTFFQGNCYFMSNSQRNWHDSITACKEVGAQLVVIKSAEEQNFLQLQSSRSNRFTWMGLSDLNQEGTWQWVDGSPLLPSFKQYWNRGEPNNVGEEDCAEFSGNGWNDDKCNLAKFWICKKSAASCSRDEEQFLSPAPATPNPPPA
notes: whole, on cells; also called DC-SIGN; CD209
B4: Liver/lymph node-specific intercellular adhesion molecule-3-grabbing integrin expressed on cells (receptor)
chain: MSDSKEPRVQQLGLLEEDPTTSGIRLFPRDFQFQQIHGHKSSTGCLGHGALVLQLLSFMLLAGVLVAILVQVSKVPSSLSQEQSEQDAIYQNLTQLKAAVGELSEKSKLQEIYQELTQLKAAVGELPEKSKLQEIYQELTRLKAAVGELPEKSKLQEIYQELTRLKAAVGELPEKSKLQEIYQELTRLKAAVGELPEKSKLQEIYQELTELKAAVGELPEKSKLQEIYQELTQLKAAVGELPDQSKQQQIYQELTDLKTAFERLCRHCPKDWTFFQGNCYFMSNSQRNWHDSVTACQEVRAQLVVIKTAEEQNFLQLQTSRSNRFSWMGLSDLNQEGTWQWVDGSPLSPSFQRYWNSGEPNNSGNEDCAEFSGSGWNDNRCDVDNYWICKKPAACFRDE
notes: whole, on cells; also called L-SIGN; CLEC4M
B5: C-type lectin domain family 10 member A expressed on cells (receptor)
chain: MTRTYENFQYLENKVKVQGFKNGPLPLQSLLQRLCSGPCHLLLSLGLGLLLLVIICVVGFQNSKFQRDLVTLRTDFSNFTSNTVAEIQALTSQGSSLEETIASLKAEVEGFKQERQAGVSELQEHTTQKAHLGHCPHCPSVCVPVHSEMLLRVQQLVQDLKKLTCQVATLNNNASTEGTCCPVNWVEHQDSCYWFSHSGMSWAEAEKYCQLKNAHLVVINSREEQNFVQKYLGSAYTWMGLSDPEGAWKWVDGTDYATGFQNWKPGQPDDWQGHGLGGGEDCAHFHPDGRWNDDVCQRPYHWVCEAGLGQTSQESH
notes: whole, on cells; also called CLEC10A

For the test, the target named is T1, S1-69/70 DelFc (SARS-CoV-2, UniProt P0DTC2 14-685).
T1 construct: domain: S1
Kind of test: Fc-tagged protein on receptor-expressing HEK293T cells (FIG. 13A).
For B1, the binding result is reported as “binds”.
B2: the binding result is on record as “binds”.
To B3 belongs “binds”; to B4, “binds”; to B5, “binds”.
